Data set [1] addresses T1, Sc-Rad2-ΔSC (Saccharomyces cerevisiae, UniProt P07276 2-986, del112-731;del987-1031). Put plainly: X-ray crystallography, 2.4 Å; Ca2+ at active site; K+ at H2TH; Crystallization at room temperature, protein:DNA 1:1.2, 10 mg/ml protein; protein in 20 mM HEPES pH 7.5, 150 mM KCl, 5 mM Ca acetate, 5% glycerol, 0.5 mM TCEP (complex I: 150 mM NaCl); point-mutant cleavage assays without a binding read-out not listed. The settings on record: protein: recombinant; tags: 6xHis-SUMO removed by SENP; N-terminal Gly2 after cleavage; chain copies: 2; 15 bp with 1 nt overhangs on all four ends.

Data set [2] concerns the molecule itself. Put plainly: crystal structure; complex I: selenomethionine-labeled Rad2-ΔSC mixed with DNA at a 1:1.2 molar ratio, sitting-drop vapor diffusion, room temperature, reservoir 20% (v/v) ethylene glycol; space group P3(2)21, 2.75 Å.
For data set [3], the target named is T1, Sc-Rad2-ΔSC. The data set can be described thus: X-ray crystallography, 2.1 Å; Ca2+ at active site; K+ at H2TH; Crystallization at room temperature, protein:DNA 1:1.2, 10 mg/ml protein; protein in 20 mM HEPES pH 7.5, 150 mM KCl, 5 mM Ca acetate, 5% glycerol, 0.5 mM TCEP (complex I: 150 mM NaCl); point-mutant cleavage assays without a binding read-out not listed. The settings on record: protein: recombinant; tags: 6xHis-SUMO removed by SENP; N-terminal Gly2 after cleavage; chain copies: 2; 14 complementary bp with TT overhangs on all four ends; in crystal 15-mer duplex with one T-T mismatch, 1 nt overhangs at one end and 2 nt at the other.

Data set [4] concerns the target T1, Sc-Rad2-ΔSC. Put plainly: X-ray crystallography, 2.7 Å; Ca2+ at active site; K+ at H2TH; Crystallization at room temperature, protein:DNA 1:1.2, 10 mg/ml protein; protein in 20 mM HEPES pH 7.5, 150 mM KCl, 5 mM Ca acetate, 5% glycerol, 0.5 mM TCEP (complex I: 150 mM NaCl); point-mutant cleavage assays without a binding read-out not listed. The settings on record: protein: recombinant; tags: 6xHis-SUMO removed by SENP; N-terminal Gly2 after cleavage; chain copies: 2; 15 bp with 4 nt overhangs on all four ends.

For data set [5], the target named is Sc-Rad2-ΔSC (complex I construct) (Saccharomyces cerevisiae, UniProt P07276 1-986, del112-731;del987-1031). The data set can be described thus: X-ray crystallography; non-productive complex; DNA largely disordered, backbone contacts H2TH of one subunit; Crystallization at room temperature, protein:DNA 1:1.2, 10 mg/ml protein; protein in 20 mM HEPES pH 7.5, 150 mM KCl, 5 mM Ca acetate, 5% glycerol, 0.5 mM TCEP (complex I: 150 mM NaCl); point-mutant cleavage assays without a binding read-out not listed. The settings on record: protein: recombinant; tags: 6xHis-SUMO cleaved; two additional N-terminal residues left; chain copies: 2; duplex 12-15 bp with overhangs.

B1: complex III DNA (dsDNA)
DNA 1: TGCTCCCTTGTCTCAGT
DNA 2: TCTGAGACAAGGGAGCT
Regarding B1, the binding result with Sc-Rad2-ΔSC [1] is “binds”.

B2: Sc-Rad2-ΔSC (Δ112-731, Δ987-1031) (enzyme, S. cerevisiae, UniProt P07276 1-986, looked up)
chain: MGVHSFWDIAGPTARPVRLESLEDKRMAVDASIWIYQFLKAVRDQEGNAVKNSHITGFFRRICKLLYFGIRPVFVFDGGVPVLKRETIRQRKERRQGKRESAKSTARKLLANTTLSTSAERNVAENAFVEDELFEQQMKDKRDSDEVTMDMIKEVQELLSRFGIPYITAPMEAEAQCAELLQLNLVDGIITDDSDVFLFGGTKIYKNMFHEKNYVEFYDAESILKLLGLDRKNMIELAQLLGSDYTNGLKGMGPVSSIEVIAEFGNLKNFKDWYNNGQFDKRKQETENKFEKDLRKKLVNNEIILDDDFPSVMVYDAYMRPEVDHDTTPFVWGVPDLDMLRSFMKTQLGWPHEKSDEILIPLIRDV
modifications: selenomethionine-labeled (complex I)
notes: Rad2, S. cerevisiae, spacer residues 112-731 removed and C-terminus (residues 987-1031) removed; The dimer is seen in crystal complex I together with disordered DNA; The same construct, not selenomethionine-labeled, stands in complexes II-IV; also called Sc-Rad-ΔSC; catalytic core of Rad2; source: E. coli BL21 (DE3) Rosseta, purified (HisTrap, SENP cleavage, second HisTrap, Superdex 200); …
Consider B2, for which the binding result in data set [2] is “binds”.

B3: complex II DNA (dsDNA)
DNA 1: TTAGGTGGACGGATCATT
DNA 2: TTTGATCCGTCCACCTTT
On to B3, for which the binding result with Sc-Rad2-ΔSC [3] is “binds”.

B4: complex IV DNA (dsDNA)
DNA 1: TTTTGCTCCCTTGTCTCAGTTTT
DNA 2: TTTTCTGAGACAAGGGAGCTTTT
Take B4: the binding result with Sc-Rad2-ΔSC [4] is given as “binds”.

B5: complex I DNA (dsDNA)
DNA 1: AAAGCTCTGACTCAG
DNA 2: CTGAGTCAGAGCAAA
With B5, the binding result in data set [5] is “binds”.

Values taken from article PMC4176360, “Crystal structure of the catalytic core of Rad2: insights into the mechanism of substrate binding” (Nucleic Acids Research, 2014).
